The record followed here is US20250257133A1 (ADAGENE PTE, published 2025).

Assay [1] has as its target T1, His-tagged human CTLA4 protein (human, UniProt P16410 36-161, limits assumed).
T1 construct: not shown: His tag
Kind of assay: Octet BLI, mAb captured.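 Also: Anti-human Fc biosensors captured the antibodies, then His-tagged protein analytes at 100 nM associated for 300 s and dissociated for 300 s, fitted by a 1:1 Langmuir model.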 A general note: BLI is a label-free optical method that tracks binding on a fibre tip over time.

Assay [2] addresses T2, His-tagged human CD28 protein (human, UniProt P10747 19-152).
T2 construct: not shown: His tag
Description: Octet BLI, mAb captured.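 Also: Anti-human Fc biosensors captured the antibodies, then His-tagged protein analytes at 100 nM associated for 300 s and dissociated for 300 s, fitted by a 1:1 Langmuir model.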

The target of assay [3] is T3, Human CD28 on cells (human, UniProt P10747 19-220).
T3 construct: Jurkat E6-1 cells, primary human T cells, or transfected HEK293F cells; also called CD28 on Jurkat cells; CD28 on human CD3+ T cells
Kind of assay: flow cytometry, Jurkat cells. (Flow cytometry measures light scatter and fluorescence of single cells or particles in a stream.)

T1 sequence (P16410 36-161 limits assumed): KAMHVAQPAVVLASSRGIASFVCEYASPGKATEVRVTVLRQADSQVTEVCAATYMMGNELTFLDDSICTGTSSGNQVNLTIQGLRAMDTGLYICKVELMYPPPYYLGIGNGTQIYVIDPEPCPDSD

B1: TY24881 (antibody, human IgG4 S228P, kappa, V domains shown)
VH: QVQLVQSGAEVKKPGSSVKVSCKASGFSLSTGGVGVTWIRQAPGQGLEWIGSIYHSGSTYYSPSLKSRVTITADKSTSTAYMELSSLRSEDTAVYYCARYDYGYYSFDVWGQGTLVTVSS
VL: DIQLTQSPSSLSASVGDRVTITCRASQSVDFDAFSFLAWYQQKPGKAPKLLIYAASTLQSGVPSRFSGSGSGTDFTLTISSLQPEDFATYYCQQSYSASTFGQGTKVEIKR
notes: hIgG4/S241P
By Kd is commonly meant the equilibrium constant for the complex coming apart. The term koff denotes the first-order rate constant of dissociation. Low values mean slow dissociation, high ones fast dissociation. The term kon denotes a measure of how fast the partners come together. A lower kon goes with slow association. The term EC50 denotes the concentration giving half of the maximal effect. In assay [1], B1 showed a dissociation constant (Kd) of 2.35 nM, a koff of 0.00262 s⁻¹ and an on-rate constant (kon) of 1.11e+06 M⁻¹ s⁻¹. In assay [2], this molecule yielded a Kd of 5.25 nM, a koff of 0.000662 s⁻¹ and a kon of 126000 M⁻¹ s⁻¹. In addition, the 50% effective concentration (EC50) in assay [3] was found to be 0.38 nM.

B2: TY24854 (antibody, human IgG4 S228P, kappa, V domains shown)
VH: EVQLVESGGGLVQPGGSLRLSCAASGYSITSGYHWGWIRQAPGKGLEWIGEIYHSGSTYYSPSLKSRVTISRDNSKNTLYLQLNSLRAEDTAVYYCARRRGDGYFDFWGQGTLVTVSS
VL: DIQLTQSPSSLSASVGDRVTITCRASQSVDFLGISFLHWYQQKPGKAPKLLIYDASNRATGIPSRFSGSGSGTDFTLTISSLQPEDFATYYCQQSYRTPLTFGQGTKVEIKR
notes: hIgG4/S241P
In assay [2], B2 had a dissociation constant (Kd) of 5.43 nM, a koff of 0.000353 s⁻¹ and a kon of 64900 M⁻¹ s⁻¹. For the same molecule, the concentration for a half-maximal effect (EC50) in assay [3] was 0.6 nM.

B3: TY24855 (antibody, human IgG4 S228P, kappa, V domains shown)
VH: EVQLVESGGGLVQPGGSLRLSCAASGYSITSGHHWSWIRQAPGKGLEWIGDIYHSGSTYYNPSLKSRVTISRDNSKNTLYLQLNSLRAEDTAVYYCARKDDYYAFDYWGQGTLVTVSS
VL: DIQLTQSPSSLSASVGDRVTITCRAPQSVDFHGKSFLHWYQQKPGKAPKLLIYDASNRATGIPSRFSGSGSGTDFTLTISSLQPEDFATYYCQQSYRSPITFGQGTKVEIKR
notes: hIgG4/S241P
As to B3, in assay [1], binding was put at a Kd of 4.02 nM, the off-rate constant (koff) was found to be 0.00305 s⁻¹ and the kon is 760000 M⁻¹ s⁻¹. Moreover, in assay [2], the dissociation constant Kd turned out to be 7.93 nM, the dissociation rate constant (koff) was 0.000628 s⁻¹ and the kon turned out to be 79200 M⁻¹ s⁻¹. The molecule also gave an EC50 in assay [3] of 0.61 nM.

B4: TY24871 (antibody, human IgG4 S228P, kappa, V domains shown)
VH: QVQLVQSGAEVKKPGSSVKVSCKASGFTFSSYAIHWVRQAPGQGLEWIGSIYHSGSTYYSPSLKSRVTITADKSTSTAYMELSSLRSEDTAVYYCARDVYGSYALDVWGQGTLVTVSS
VL: DIQLTQSPSSLSASVGDRVTITCRASQSVDFDGISFLHWYQQKPGKAPKLLIYDASSLESGVPSRFSGSGSGTDFTLTISSLQPEDFATYYCQQSYRSPITFGQGTKVEIKR
notes: hIgG4/S241P
As for B4, in assay [2], the dissociation constant Kd came to 4.99 nM, the koff was 0.00035 s⁻¹ and the kon worked out at 70100 M⁻¹ s⁻¹. Besides, a half-maximal effect in assay [3] (EC50) was put at 0.89 nM.

B5: TY24864 (antibody, human IgG4 S228P, kappa, V domains shown)
VH: EVQLVESGGGLVQPGGSLRLSCAASGFSLSTSGVGVSWIRQAPGKGLEWIGAIYHSGSTYYSPSLKSRVTISRDNSKNTLYLQLNSLRAEDTAVYYCARYGYSYYAFDYWGQGTLVTVSS
VL: DIQLTQSPSSLSASVGDRVTITCRASQTIGSFLNWYQQKPGKAPKLLIYDASSLESGVPSRFSGSGSGTDFTLTISSLQPEDFATYYCQQSYSYQTFGQGTKVEIKR
notes: hIgG4/S241P
In assay [1], B5 gave a Kd of 5.5 nM, a koff of 0.00284 s⁻¹ and a kon of 517000 M⁻¹ s⁻¹. Besides, in assay [2], the Kd came out at 4.41 nM, the koff is 0.000416 s⁻¹ and the association rate constant (kon) is 94200 M⁻¹ s⁻¹. The molecule further came in with an EC50 in assay [3] of 0.54 nM.

B6: TY24856 (antibody, human IgG4 S228P, kappa, V domains shown)
VH: EVQLVESGGGLVQPGGSLRLSCAASGYSISSGHHWSWIRQAPGKGLEWIGEIYHSGSTYYSPSLKSRVTISRDNSKNTLYLQLNSLRAEDTAVYYCARRDFGASYFDYWGQGTLVTVSS
VL: DIQLTQSPSSLSASVGDRVTITCRASQGVGPWLAWYQQKPGKAPKLLIYAASSLQSGVPSRFSGSGSGTDFTLTISSLQPEDFATYYCQQYYSYSTFGQGTKVEIKR
notes: hIgG4/S241P
As to B6, in assay [1], the dissociation constant Kd worked out at 5.13 nM, the off-rate constant (koff) was determined as 0.00156 s⁻¹ and the kon came to 304000 M⁻¹ s⁻¹. For the same molecule, in assay [2], the equilibrium dissociation constant (Kd) worked out at 7.8 nM, the koff came out at 0.000538 s⁻¹ and the association rate constant (kon) came out at 68900 M⁻¹ s⁻¹. The concentration giving a half-maximal response (EC50) in assay [3] is 0.76 nM.
